Molecular target: T1, CAR (Coxsackie and adenoviruses receptor) (human, UniProt P78310 20-365)
T1 sequence: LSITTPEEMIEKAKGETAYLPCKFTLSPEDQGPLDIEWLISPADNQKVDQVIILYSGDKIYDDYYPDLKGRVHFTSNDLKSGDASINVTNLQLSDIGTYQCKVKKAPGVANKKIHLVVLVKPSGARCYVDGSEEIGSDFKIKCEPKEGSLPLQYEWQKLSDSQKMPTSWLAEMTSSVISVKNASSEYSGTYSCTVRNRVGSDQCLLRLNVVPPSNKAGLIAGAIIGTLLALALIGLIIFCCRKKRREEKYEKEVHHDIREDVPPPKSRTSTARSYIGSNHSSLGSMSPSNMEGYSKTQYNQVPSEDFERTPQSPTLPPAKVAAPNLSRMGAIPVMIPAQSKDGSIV
Test: cell-based or functional assay

B1: vBS1: Ad5 virus with short-shafted fiber from Ad5 (deletion encompassing shaft repeats 4-16) (other)
chain: MKRARPSEDTFNPVYPYDTETGPPTVPFLTPPFVSPNGFQESPPGVLSLRLSEPLVTSNGMLALKMGNGLSLDEAGNLTSQNVTTVSPPLKKTKSNLDINYNKGLYLFTASNNSKKLEVNLSTAKGLMFDATAIAINAGDGLEFGSPNAPNTNPLKTKIGHGLEFDSNKAMVPKLGTGLSFDSTGAITVGNKNNDKLTLWTTPAPSPNCRLNAEKDAKLTLVLTKCGSQILATVSVLAVKGSLAPISGTVQSAHLIIRFDENGVLLNNSFLDPEYWNFRNGDLTEGTAYTNAVGFMPNLSAYPKSHGKTAKSNIVSQVYLNGDKTKPVTLTITLNGTQETGDTTPSAYSMSFSWDWSGHNYINEIFATSSYTFSYIAQE
- cell transduction of 293 cells (specific lacZ expression, moi 50 VP/cell): 10 fold
